# Laboratory results taken from publication PMC4397963, “Phospho-Tyrosine(s) vs. Phosphatidylinositol Binding in Shc Mediated Integrin Signaling” (American journal of molecular biology, 2015).
# “Also recorded” adds a separate entry of the source. Where a SMILES comes first, the peptide text is derived from it. Where no end group is shown, it is not given here. [ ]: non-standard residue; d: D form. pY = N[C@@H](Cc1ccc(OP(=O)(O)O)cc1)C(=O)O
# B1: c-β3: β3 integrin derived peptide phosphorylated at C-terminal tyrosine (Y759) (peptide)
# peptide: ATSTFTNIT[pY]RGT
# notes: integrin β3 cytoplasmic tail, residues 750-762, Y759 phosphorylated; also called mono-phosphorylated peptide; source: synthetic peptide (NEO-Peptide)
# Columns and labels:
# [1] = target: T1, full length Shc (1 – 473) (Homo sapiens, UniProt P29353); assay: ITC binding to full length Shc; conditions: full-length Shc titrated by bi-β3, Ins(1,4,5)P3 at 3 to 1
# T1 construct: The vector of pET28a-full length Shc (1 – 473), generously provided by Dr. Ladbury; His-tag (N); made in house; host or cells: E. coli BL21 (DE3), pET28a (vector a gift from Dr. Ladbury)
# T1 sequence (P29353 1-473 isoform P29353-2): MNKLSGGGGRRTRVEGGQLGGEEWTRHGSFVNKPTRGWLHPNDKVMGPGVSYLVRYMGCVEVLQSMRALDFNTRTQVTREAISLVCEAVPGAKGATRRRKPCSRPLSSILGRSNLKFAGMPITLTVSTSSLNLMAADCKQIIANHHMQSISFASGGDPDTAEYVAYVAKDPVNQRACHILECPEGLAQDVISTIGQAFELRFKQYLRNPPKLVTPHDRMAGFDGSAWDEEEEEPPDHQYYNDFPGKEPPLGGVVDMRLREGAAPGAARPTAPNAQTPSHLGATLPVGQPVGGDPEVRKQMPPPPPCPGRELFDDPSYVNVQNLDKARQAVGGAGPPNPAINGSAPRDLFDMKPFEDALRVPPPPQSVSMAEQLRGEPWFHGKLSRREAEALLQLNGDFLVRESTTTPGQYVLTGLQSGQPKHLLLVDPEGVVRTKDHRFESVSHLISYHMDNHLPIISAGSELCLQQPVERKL
# Description: The Shc PTB domain (17 – 207) containing the pET15b vector was transformed into a Rosetta (DE3) cell line to pursue optimal expression levels. SH2 domain (380 – 473) was cloned into NdeI and XhoI sites in pET21b vector and then transformed into a BL21 (DE3) cell line. The vector of pET28a-full length Shc (1 – 473), generously provided by Dr. Ladbury (University of Texas MD Anderson Cancer Center, TX), was expressed in a BL21 (DE3) cell line as well. Typically, 10 ml overnight culture was used to inoculate 1 liter LB broth. Cells were grown at 37°C until OD600 reached 0.6. At this point the culture was cooled to room temperature and then the overnight overexpression was induced by 1 mM isopropyl-β-D-thiogalactopyranoside. Harvested cells were kept at −20°C for future purification or resuspended in lysis buffer supplemented with protease inhibitors. Cells were further lysed by french press and the cell debris was removed by centrifugation at 18,000 rpm at 4°C. […] The overexpression of the target protein and the purified protein were confirmed by SDS-PAGE and the bands of the expected mass were observed. […]
# Calorimetric measurements of a full length Shc, PTB domain, and SH2 domain to β3 phosphopeptides or PtdIns were performed on a low volume Nano ITC (TA Instruments). […] The concentration of protein samples was determined by UV measurements. […]
# [2] = target: T2, Shc PTB domain (17 – 207) (Homo sapiens, UniProt P29353); assay: ITC binding to Shc PTB domain; conditions: PtdIns binding to PTB domain, ITC, 25°C
# T2 construct: The Shc PTB domain (17 – 207) containing the pET15b vector was transformed into a Rosetta (DE3) cell line; His-tag (N); made in house; host or cells: E. coli Rosetta (DE3), pET15b
# T2 sequence (P29353 17-207 isoform P29353-2): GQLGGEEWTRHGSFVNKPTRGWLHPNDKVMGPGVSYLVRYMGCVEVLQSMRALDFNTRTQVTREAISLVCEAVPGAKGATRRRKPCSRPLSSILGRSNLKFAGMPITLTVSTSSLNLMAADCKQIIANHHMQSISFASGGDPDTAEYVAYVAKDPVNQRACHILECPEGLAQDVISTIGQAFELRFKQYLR
# Description: The Shc PTB domain (17 – 207) containing the pET15b vector was transformed into a Rosetta (DE3) cell line to pursue optimal expression levels. SH2 domain (380 – 473) was cloned into NdeI and XhoI sites in pET21b vector and then transformed into a BL21 (DE3) cell line. The vector of pET28a-full length Shc (1 – 473), generously provided by Dr. Ladbury (University of Texas MD Anderson Cancer Center, TX), was expressed in a BL21 (DE3) cell line as well. Typically, 10 ml overnight culture was used to inoculate 1 liter LB broth. Cells were grown at 37°C until OD600 reached 0.6. At this point the culture was cooled to room temperature and then the overnight overexpression was induced by 1 mM isopropyl-β-D-thiogalactopyranoside. Harvested cells were kept at −20°C for future purification or resuspended in lysis buffer supplemented with protease inhibitors. Cells were further lysed by french press and the cell debris was removed by centrifugation at 18,000 rpm at 4°C. […] The overexpression of the target protein and the purified protein were confirmed by SDS-PAGE and the bands of the expected mass were observed. The determination of protein concentration by UV measurement was consistent with Bradford assay.
# Calorimetric measurements of a full length Shc, PTB domain, and SH2 domain to β3 phosphopeptides or PtdIns were performed on a low volume Nano ITC (TA Instruments). All experiments were carried out in a buffer of 50 mM Tris, pH 7.5, 100 mM NaCl, 5 mM β-mercaptoethanol (unless described otherwise) at 12°C or 25°C with a stirring speed of 250 rpm to minimize the precipitation of the protein. 300 second time intervals were set between injections. The concentration of protein samples was determined by UV measurements. The titrants (β3 phosphopeptides or PtdIns) were prepared in the same buffer by the dilution of higher concentration stocks. The concentrations of the protein ranged from 30 μM to 150 μM. The concentration of protein was examined after each ITC experiment by UV to ensure the stability of proteins under the test condition. The analysis of the data was done with Nano Analyze Software (TA Instruments) suite using an “independent” model.
# [3] = target: T3, full length Shc (1 – 473) (UniProt P29353-2 1-473); assay: ITC; Nano ITC; β3 phosphopeptide titrated into the Shc protein (30-150 μM); 25°C; 50 mM Tris, pH 7.5, 100 mM NaCl, 5 mM β-mercaptoethanol; independent model; conditions: both partners purified
# T3 construct: Shc adaptor protein, full length 1-473 (printed length 473 residues, the p52 isoform), from a pET28a vector provided by Dr. Ladbury; numbers count on: the p52 isoform; Monomeric on Superdex-75; also called Shc full length; p52 Shc; source: E. coli BL21 (DE3), purified (Ni-NTA, Superdex-75)
# T3 sequence (looked up): T1 sequence (P29353 1-473 isoform P29353-2)
# [4] = target: T4, Shc PTB domain (17 – 207) (UniProt P29353-2 17-207); assay: as above; conditions: both partners purified
# T4 construct: Shc adaptor protein (p52 isoform), PTB domain, residues 17-207, from a pET15b vector; numbers count on: the p52 isoform (full length 1-473); 15N-labelled (M9 medium with 15NH4Cl) for the NMR experiments; Monomeric on Superdex-75; also called apo PTB domain; source: E. coli Rosetta (DE3), purified (Ni-NTA, Superdex-75)
# T4 sequence (looked up): T2 sequence (P29353 17-207 isoform P29353-2)
# [5] = target: T3, full length Shc (1 – 473); assay: ITC; Nano ITC; β3 phosphopeptide titrated into the Shc protein (30-150 μM); 12°C; 50 mM Tris, pH 7.5, 100 mM NaCl, 5 mM β-mercaptoethanol; independent model; conditions: both partners purified
# [6] = target: T4, Shc PTB domain (17 – 207); assay: as above; conditions: both partners purified
# [7] = target: T3, full length Shc (1 – 473); assay: ITC; Nano ITC; β3 phosphopeptide titrated into the Shc protein (30-150 μM); 25°C; 50 mM Tris, pH 7.5, 100 mM NaCl, 5 mM β-mercaptoethanol; independent model; conditions: both partners purified; remark: listed apart in the source
# [8] = target: T4, Shc PTB domain (17 – 207); assay: as above; conditions: both partners purified; remark: listed apart in the source
# [9] = target: T3, full length Shc (1 – 473); assay: ITC; Nano ITC; β3 phosphopeptide titrated into the Shc protein over-saturated by Ins(1,4,5)P3 at 3 to 1 lipid to protein ratio; 12°C; conditions: both partners purified
# [10] = target: T4, Shc PTB domain (17 – 207); assay: as above; conditions: both partners purified
molecule,measurement,setting,value
CC[C@H](C)[C@H](NC(=O)[C@H](CC(N)=O)NC(=O)[C@@H](NC(=O)[C@H](Cc1ccccc1)NC(=O)[C@@H](NC(=O)[C@H](CO)NC(=O)[C@@H](NC(=O)[C@H](C)NC(=O)[C@H](CCC(=O)O)NC(=O)[C@H](CCCCN)NC(=O)[C@H](Cc1ccc(OP(=O)(O)O)cc1)NC(=O)[C@H](CC(C)C)NC(=O)[C@@H]1CCCN1C(=O)[C@H](CC(N)=O)NC(=O)[C@H](CC(N)=O)NC(=O)[C@H](C)NC(=O)[C@@H](NC(=O)[C@H](CC(=O)O)NC(=O)[C@H](Cc1c[nH]c2ccccc12)NC(=O)[C@H](CCCCN)NC(=O)[C@H](C)NC(=O)[C@@H](N)CCCNC(=N)N)[C@@H](C)O)[C@@H](C)O)[C@@H](C)O)[C@@H](C)O)C(=O)N[C@H](C(=O)N[C@@H](Cc1ccc(OP(=O)(O)O)cc1)C(=O)N[C@@H](CCCNC(=N)N)C(=O)NCC(=O)N[C@H](C(=O)O)[C@@H](C)O)[C@@H](C)O [bi-β3] (H-RAKWDTANNPL[pY]KEATSTFTNIT[pY]RGT-OH),"change in Kd caused by Ins(1,4,5)P3",[1],slight reduction of Kd value
Phosphatidylinositol-5-phosphate [PtdIns(5)P1],Kd,"[2]; 50 mM Tris pH 7.5, 100 mM NaCl, 5 mM β-mercaptoethanol, ""independent"" model, dihexanoyl- or dioctonoyl- PtdIns",not able to detect the binding; also recorded: does not show to bind; also recorded: No binding
same,ΔG,[2]; pH 7.5,No binding
same,ΔH,[2]; pH 7.5,No binding
same,−TΔS,[2]; pH 7.5,No binding
B1,Kd,[3],1.33 µM
same,dH,[3],-7.4 kJ/mol
same,Kd,[4],0.35 µM
same,dH,[4],-25.4 kJ/mol
same,Kd,[5],0.82 µM
same,dH,[5],-21 kJ/mol
same,Kd,[6],1.05 µM
same,dH,[6],-24.2 kJ/mol
same,stoichiometry N,[7],1 ± 0.15
same,Kd,[8],0.34 µM
same,stoichiometry N,[8],1 ± 0.15
same,Kd,[9],0.87 µM
same,dH,[9],-21.1 kJ/mol
same,Kd,[10],1.12 µM
same,dH,[10],-23.6 kJ/mol
